Numbering of substitutions follows the chain as printed.

Test [1] concerns the target T1, human VEGF165 (hVEGF165) (human, UniProt P15692 207-395). The experiment in a line: DELFIA competition, biotinylated hVEGF165 0.5 µg/ml plus periplasmic scFv on VEGF-R1 or VEGF-R2 coated plate.
Test [2] concerns the target T1, human VEGF165 (hVEGF165). The experiment in a line: cell-based or functional assay.
Test [3] deals with T1, human VEGF165 (hVEGF165). The experiment in a line: Biacore. Background: In SPR one partner is held on a chip, and binding of the other changes the refractive index at the surface.
For test [4], the target named is T1, human VEGF165 (hVEGF165). The experiment in a line: cell-based or functional assay. The source holds these as a separate data set.
Test [5] deals with T1, human VEGF165 (hVEGF165). The experiment in a line: Biacore, IgG2 (summary table). Here is the method: Dilution and running buffer for these experiments was HBS-EP (Biacore) with 1:50 dilution of Chemiblocker® (Chemicon). […] Antibody concentrations were approximately 0.5 μg/ml. hVEGF₁₆₅ expressed from sf21 cells was injected over five minutes at 30 μl/minute using the Kinject feature with 15 minute dissociation over fc1 and 2. […] Regenerations were performed with two injections of 100 mM HCl at 50 μl/minutes for twelve seconds each. Data was processed in Scrubber2 and fit by a 1:1 Langmuir interaction model after double referencing of the control flow cell and blank injections.

For another test, the target named is T2, hVEGF121-G92A (human, UniProt P15692-9 27-147, G92A).
T2 construct: Transiently expressed in CHO-K1 cells; culture supernatant used
T2 sequence (looked up): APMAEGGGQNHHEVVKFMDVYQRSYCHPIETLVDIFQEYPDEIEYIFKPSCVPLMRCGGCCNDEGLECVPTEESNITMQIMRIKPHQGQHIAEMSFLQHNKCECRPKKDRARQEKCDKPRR
The experiment in a line: sandwich ELISA, antibody coated 5 ug/ml. Here is the method: (§1) The plate was blocked with 30% ChemiBlock™ reagent (Millipore) in PBS for one hour at room temperature, and 30, 60, or 100 μl of CHO-K1 culture supernatant for each mutant, or 1 μg/ml of wild-type hVEGF₁₂₁, recombinant hVEGF₁₆₅, or recombinant mVEGF₁₆₅, was added to appropriate wells. After one hour of incubation, the plate was washed and incubated with a biotinylated goat polyclonal anti-VEGF antibody for one hour at room temperature. Detection was performed with HRP-conjugated streptavidin, followed by TMB chromogenic substrate (Calbiochem) using manufacturer protocol.
In general terms: In an ELISA, binding on a coated surface is turned into a signal by an enzyme label.

The target in test [6] is T1, human VEGF165 (hVEGF165). The experiment in a line: sandwich ELISA, antibody coated 5 ug/ml. Here is the method:
as §1

The target in a further test is T3, wild-type hVEGF121 (human, UniProt P15692-9 27-147).
T3 construct: Isoform VEGF121 of P15692
T3 sequence (looked up): T2 sequence (looked up) with A92G
The experiment in a line: sandwich ELISA, antibody coated 5 ug/ml. Here is the method: as §1

The target of a further test is T4, hVEGF121-M81A (human, UniProt P15692-9 27-147).
T4 construct: Transiently expressed in CHO-K1 cells; culture supernatant used
T4 sequence (looked up): T2 sequence (looked up) with M81A, A92G
The experiment in a line: sandwich ELISA, antibody coated 5 ug/ml. Here is the method:
as §1

In the next test the target is T5, hVEGF121-G88S (human, UniProt P15692-9 27-147, G88S).
T5 construct: Transiently expressed in CHO-K1 cells; culture supernatant used
T5 sequence (looked up): T2 sequence (looked up) with G88S, A92G
The experiment in a line: sandwich ELISA, antibody coated 5 ug/ml. How it is done:
as §1

The target in another test is T6, hVEGF121-Q89A (human, UniProt P15692-9 27-147, Q89A).
T6 construct: Transiently expressed in CHO-K1 cells; culture supernatant used
T6 sequence (looked up): T2 sequence (looked up) with Q89A, A92G
The experiment in a line: sandwich ELISA, antibody coated 5 ug/ml. How it is done: as §1

Test [7] has as its target T7, murine VEGF165 (mVEGF165) (murine, UniProt Q00731-2 27-190).
T7 construct: also called rMu-VEGF165; recombinant mVEGF165
T7 sequence (looked up): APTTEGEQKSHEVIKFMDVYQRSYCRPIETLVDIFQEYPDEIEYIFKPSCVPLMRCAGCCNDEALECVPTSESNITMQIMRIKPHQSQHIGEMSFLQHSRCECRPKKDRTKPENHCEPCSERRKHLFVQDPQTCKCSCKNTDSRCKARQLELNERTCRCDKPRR
The experiment in a line: sandwich ELISA, antibody coated 5 ug/ml; sandwich ELISA, Ab coated at 5 ug/ml, murine VEGF165 at 1 ug/ml; signal at background, i.e. no binding. How it is done:
as §1

B1: XPA.10.072 scFv (scFv, part only; not given: linker, domain order, tags, V domains shown, not shown: another chain or arm of the molecule; large carriers; small tags and cut ends)
VH: RLQLVQSGAEVRKPGASVKVSCKASGYSFTGHYIHWARQAPGQGLEWMGWINPYSGGTNFPREFQGRVTMTRDTSVNTVYMELTRLTSDDTSVYYCARDHRIVGGLDYWGQGTLVTVSS
VL: QSVLTQPPSASGTPGQRVTISCSGSSSNLGSNFVYWYQQLPGTAPKLLIYRNHQRPSGVPDRFSGSKSGTSASLAISGLRSEDEADYYCASWDDSLRVVVFGGGTKLTVL
Take B1: the percent inhibition of hVEGF165 binding to receptor in the test with human VEGF165 (hVEGF165) [1] is above 60%.

B2: XPA.10.064 scFv-Fc (Fc fusion, not shown: a dimerising Fc or GST; small tags and cut ends)
VH: B1 VH with R1E, L2V, A37V
VL: B1 VL with Q1S, S2Y, L29I, S31I, F33Y, H53D, S91T, R97S, V98G, L107V
One may read the IC50 as the point on the concentration scale where inhibition reaches its midpoint. The low end stands for inhibition by little substance, the high end for a need for much substance. Take B2: in the test with human VEGF165 (hVEGF165) [2], 0.41 µg/mL corresponded to half-maximal inhibition (IC50).

B3: XPA.10.064 scFv (scFv, part only; not given: linker, domain order, tags, V domains shown, not shown: another chain or arm of the molecule; large carriers; small tags and cut ends)
VH: B1 VH with R1E, L2V, A37V
VL: B1 VL with Q1S, S2Y, L29I, S31I, F33Y, H53D, S91T, R97S, V98G, L107V
Take B3: in the test with human VEGF165 (hVEGF165) [1], the percent inhibition of hVEGF165 binding to receptor was above 60%.

B4: XPA.10.072 scFv-Fc (Fc fusion, not shown: a dimerising Fc or GST; small tags and cut ends)
VH: B1 VH
VL: B1 VL
In the test with human VEGF165 (hVEGF165) [2], B4 yielded an IC50 above 1 µg/mL.

B5: XPA.10.072 IgG2 (antibody, V domains shown)
VH: B1 VH
VL: B1 VL
notes: Fully human antibody from an scFv phage library, converted to IgG2 (gamma-2 heavy chain constant region); also called XPA.072; VPA.10.072
Broadly, the Kd is a measure of binding affinity in units of concentration. Low values mean higher affinity, high ones lower affinity. Regarding B5, in the test with human VEGF165 (hVEGF165) [3], the “off-rate relative to Bevacizumab” value was around 2 fold. Moreover, the “Inhibition of HUVEC proliferation, HEK 293 hVEGF165, EC50” value with human VEGF165 (hVEGF165) [4] was found to be 0.68 µg/mL. Binding with human VEGF165 (hVEGF165) [5] was put at a Kd of 1.7 nM. In addition, the fold over background with hVEGF121-G92A turned out to be 30.5 fold; in the test with human VEGF165 (hVEGF165) [6] it was 29.2 fold; with wild-type hVEGF121 it was 31.8 fold; with hVEGF121-M81A, 13.4 fold; in the test with hVEGF121-G88S, 1 fold; with hVEGF121-Q89A, 3.3 fold. Also, the fold over background in test [7] was 1.1 fold.

B6: XPA.10.064 IgG2 (antibody, V domains shown)
VH: B1 VH with R1E, L2V, A37V
VL: B1 VL with Q1S, S2Y, L29I, S31I, F33Y, H53D, S91T, R97S, V98G, L107V
notes: Fully human antibody from an scFv phage library, converted to IgG2 (gamma-2 heavy chain constant region); also called VPA.10.064
On to B6, for which the “off-rate relative to Bevacizumab” value in the test with human VEGF165 (hVEGF165) [3] was around 2 fold. Further, in the test with human VEGF165 (hVEGF165) [4], the “Inhibition of HUVEC proliferation, HEK 293 hVEGF165, EC50” value is 0.66 µg/mL. Also, in the test with human VEGF165 (hVEGF165) [5], the dissociation constant Kd worked out at 1.5 nM. Also, the fold over background with hVEGF121-G92A is 22.8 fold; with human VEGF165 (hVEGF165) [6], 23 fold; with wild-type hVEGF121 it was 29.1 fold; in the test with hVEGF121-M81A it was 9.5 fold; in the test with hVEGF121-G88S, 0.9 fold; with hVEGF121-Q89A it was 3.5 fold. Moreover, in test [7], the fold over background stood at 0.7 fold.

The values above are taken from US20110076279A1 (SCHERING, published 2011).
